Measured values published in paper PMC3123277, “Engineering Klebsiella sp. 601 multicopper oxidase enhances the catalytic efficiency towards phenolic substrates” (BMC Biochemistry, 2011).

How the values were obtained:
[1] = molecular target: T1, Klebsiella sp. 601 MCO (multicopper oxidase) (Klebsiella sp. 601, UniProt B0FMT2); experiment: spectrophotometric oxidation assay, Lineweaver-Burk; assay type: biochemical; settings: pH 5.0, 50 mM acetate, 37°C, 0.2 mM CuSO4; read-out: Wild-type
T1 sequence (B0FMT2 29-536): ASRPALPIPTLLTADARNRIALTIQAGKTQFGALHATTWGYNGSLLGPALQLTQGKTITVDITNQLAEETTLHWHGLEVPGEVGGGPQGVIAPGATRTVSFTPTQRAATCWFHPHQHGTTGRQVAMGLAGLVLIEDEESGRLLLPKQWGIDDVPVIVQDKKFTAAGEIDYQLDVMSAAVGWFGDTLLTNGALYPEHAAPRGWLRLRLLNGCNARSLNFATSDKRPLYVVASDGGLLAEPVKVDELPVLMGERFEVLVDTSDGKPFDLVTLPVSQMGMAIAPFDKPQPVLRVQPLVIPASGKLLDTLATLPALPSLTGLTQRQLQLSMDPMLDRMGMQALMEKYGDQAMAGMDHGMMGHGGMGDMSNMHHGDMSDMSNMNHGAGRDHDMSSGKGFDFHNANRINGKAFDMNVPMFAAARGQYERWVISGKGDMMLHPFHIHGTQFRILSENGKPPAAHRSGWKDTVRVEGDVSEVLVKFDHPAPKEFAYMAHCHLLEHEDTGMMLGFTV
From the text: (§1) spectrophotometric oxidation assay, Lineweaver-Burk on Klebsiella sp. 601 MCO (multicopper oxidase)

[2] = molecular target: Klebsiella sp. 601 MCO (multicopper oxidase) (Klebsiella sp. 601, UniProt B0FMT2, E106F); settings: read-out: E106F; pH 5.0, 50 mM acetate, 37°C, 0.2 mM CuSO4
From the text: as §1

[3] = molecular target: Klebsiella sp. 601 MCO (multicopper oxidase) (Klebsiella sp. 601, UniProt B0FMT2, R361G/M362G/L367G/M368G/E369P/M376K/M379P); settings: read-out: α351-380M; pH 5.0, 50 mM acetate, 37°C, 0.2 mM CuSO4
From the text: as §1

[4] = tested on: CCn1c(=NN=c2sc3cc(S(=O)(=O)O)ccc3n2CC)sc2cc(S(=O)(=O)O)ccc21; experiment: purified protein; settings: pH 3.6, 50 mM acetic acid-sodium acetate, 37°C, 0.2 mM CuSO4
[5] = substrate: CCn1c(=NN=c2sc3cc(S(=O)(=O)O)ccc3n2CC)sc2cc(S(=O)(=O)O)ccc21; experiment: spectrophotometric oxidation assay, Lineweaver-Burk; assay type: biochemical, Klebsiella sp. 601; settings: pH 3.0, 50 mM acetic acid-sodium acetate, 37°C, 0.2 mM CuSO4, pH 3.0
From the text: as §1

[6] = substrate: COc1cc(C=NN=Cc2cc(OC)c(O)c(OC)c2)cc(OC)c1O; experiment: as above; assay type: biochemical, Klebsiella sp. 601; settings: pH 6.8, 50 mM phosphate, 37°C, 0.2 mM CuSO4, pH 6.8
From the text: as §1

COc1cccc(OC)c1O [DMP]
Km [1]: 2.85 mM | Km [2]: 1.18 mM | Km [3]: 639 ± 17 µM

Klebsiella sp. 601 MCO (multicopper oxidase) (Klebsiella sp. 601; E106F)
Km [4]: 159 ± 1.0 µM | kcat/Km [4]: 2.05e+08 M⁻¹ s⁻¹

Klebsiella sp. 601 MCO (multicopper oxidase) (Klebsiella sp. 601; E369P/L367G/M362G/M368G/M376K/M379P/R361G)
Km [4]: 284 ± 6.2 µM

B1: Klebsiella sp. 601 MCO (multicopper oxidase) (Klebsiella sp. 601) (protein)
chain: ASRPALPIPTLLTADARNRIALTIQAGKTQFGALHATTWGYNGSLLGPALQLTQGKTITVDITNQLAEETTLHWHGLEVPGEVGGGPQGVIAPGATRTVSFTPTQRAATCWFHPHQHGTTGRQVAMGLAGLVLIEDEESGRLLLPKQWGIDDVPVIVQDKKFTAAGEIDYQLDVMSAAVGWFGDTLLTNGALYPEHAAPRGWLRLRLLNGCNARSLNFATSDKRPLYVVASDGGLLAEPVKVDELPVLMGERFEVLVDTSDGKPFDLVTLPVSQMGMAIAPFDKPQPVLRVQPLVIPASGKLLDTLATLPALPSLTGLTQRQLQLSMDPMLDRMGMQALMEKYGDQAMAGMDHGMMGHGGMGDMSNMHHGDMSDMSNMNHGAGRDHDMSSGKGFDFHNANRINGKAFDMNVPMFAAARGQYERWVISGKGDMMLHPFHIHGTQFRILSENGKPPAAHRSGWKDTVRVEGDVSEVLVKFDHPAPKEFAYMAHCHLLEHEDTGMMLGFTV
Km [5]: 539 ± 5.0 µM | kcat/Km [5]: 1.27e+08 M⁻¹ s⁻¹ | Km [6]: 11.67 ± 0.2 µM | kcat [6]: 10.8 ± 0.1 s⁻¹ | kcat/Km [6]: 930000 M⁻¹ s⁻¹
